Source: the RNAGym collection of RNA variant scans (doi:10.1093/molbev/msab373)

B1: Azoarcus group I ribozyme (parent)
chain: GUGCCUUGCGCCGGGAAACCACGCAAGGGAUGGUGUCAAAUUCGGCGAAACCUAAGCGCCCGCCCGGGCGUAUGGCAACGCCGAGCCAAGCUUCGGCGCCUGCGCCGAUGAAGGUGUAGAGACUAGACGGCACCCACCUAAGGCAAACGCUAUGGUGAAGGCAUAGUCCAGGGAGUGGCGAAAGUCACACAAACCGG

Variants of: B1
Experiment: reverse-splicing fitness (ratio to wild type); higher = more active; in vitro selection; Mg2+ level not given
Method in brief: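 An in vitro group I ribozyme library with randomized positions was T7-transcribed and gel-purified. In triplicate, 10 pmol RNA in EPPS pH 7.5 was reacted with 50 pmoles of a 30-nt RNA substrate for 1 h at 37 °C across several added MgCl2 levels (1–48 mM), then stopped with EDTA. Products were reverse transcribed from a substrate-complementary primer, PCR-amplified and sequenced (HiSeq 4000). Fitness is a variant's read proportion after selection over that before, normalised to wild type.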

Variant	reverse-splicing fitness
GUGCCUUGCGCCGGGAAACCACGCAAGGGAUGGUGUCAAAUUCGGCGAAACCUAAGCGCCCGCCCGGGCGUAUGGCAACGCCGAGCCAAGCUUCGGCGCCUGCGCCGAUGCAGGUGUAGAGACUAGACGGCACCCACCUAAGGCCAACGUUAUGGUGAAGGCAUAGUCAAGGGAGGGGCGAAAGUCACACAAACCGG [A111C A145C C150U C169A U176G]	0.00708
GUGCCUUGCGCCGGGAAACCACGCAAGGGAUGGUGUCAAAUUCGGCGAAACCUAAGCGCCCGCCCGGGCGUAUGGCAACGCCGAGCCAAGCUUCGGCGCCUGCGCCGAUGCAGGUGUAGAGACUAGACGGCACCCACCUAAGGCCAACGUUAUGGUGAAGGCAUAGUCAAGGGAGCGGCGAAAGUCACACAAACCGG [A111C A145C C150U C169A U176C]	0.00847
GUGCCUUGCGCCGGGAAACCACGCAAGGGAUGGUGUCAAAUUCGGCGAAACCUAAGCGCCCGCCCGGGCGUAUGGCAACGCCGAGCCAAGCUUCGGCGCCUGCGCCGAUGCAGGUGUAGAGACUAGACGGCACCCACCUAAGGCCAACGUUAUGGUGAAGGCAUAGUCAAGGGAGAGGCGAAAGUCACACAAACCGG [A111C A145C C150U C169A U176A]	0.0139
GUGCCUUGCGCCGGGAAACCACGCAAGGGAUGGUGUCAAAUUCGGCGAAACCUAAGCGCCCGCCCGGGCGUAUGGCAACGCCGAGCCAAGCUUCGGCGCCUGCGCCGAUGCAGGUGUAGAGACUAGACGGCACCCACCUAAGGCCAACGUUAUGGUGAAGGCAUAGUCCAGGGAGAGGCGAAAGUCACACAAACCGG [A111C A145C C150U U176A]	0.219
GUGCCUUGCGCCGGGAAACCACGCAAGGGAUGGUGUCAAAUUCGGCGAAACCUAAGCGCCCGCCCGGGCGUAUGGCAACGCCGAGCCAAGCUUCGGCGCCUGCGCCGAUGCAGGUGUAGAGACUAGACGGCACCCACCUAAGGCCAACGUUAUGGUGAAGGCAUAGUCCAGGGAGGGGCGAAAGUCACACAAACCGG [A111C A145C C150U U176G]	0.11
GUGCCUUGCGCCGGGAAACCACGCAAGGGAUGGUGUCAAAUUCGGCGAAACCUAAGCGCCCGCCCGGGCGUAUGGCAACGCCGAGCCAAGCUUCGGCGCCUGCGCCGAUGCAGGUGUAGAGACUAGACGGCACCCACCUAAGGCCAACGUUAUGGUGAAGGCAUAGUCCAGGGAGCGGCGAAAGUCACACAAACCGG [A111C A145C C150U U176C]	0.349
GUGCCUUGCGCCGGGAAACCACGCAAGGGAUGGUGUCAAAUUCGGCGAAACCUAAGCGCCCGCCCGGGCGUAUGGCAACGCCGAGCCAAGCUUCGGCGCCUGCGCCGAUGCAGGUGUAGAGACUAGACGGCACCCACCUAAGGCCAACGCUAUGGUGAAGGCAUAGUCUAGGGAGAGGCGAAAGUCACACAAACCGG [A111C A145C C169U U176A]	0.0278
GUGCCUUGCGCCGGGAAACCACGCAAGGGAUGGUGUCAAAUUCGGCGAAACCUAAGCGCCCGCCCGGGCGUAUGGCAACGCCGAGCCAAGCUUCGGCGCCUGCGCCGAUGCAGGUGUAGAGACUAGACGGCACCCACCUAAGGCCAACGCUAUGGUGAAGGCAUAGUCUAGGGAGGGGCGAAAGUCACACAAACCGG [A111C A145C C169U U176G]	0.00694
GUGCCUUGCGCCGGGAAACCACGCAAGGGAUGGUGUCAAAUUCGGCGAAACCUAAGCGCCCGCCCGGGCGUAUGGCAACGCCGAGCCAAGCUUCGGCGCCUGCGCCGAUGCAGGUGUAGAGACUAGACGGCACCCACCUAAGGCCAACGCUAUGGUGAAGGCAUAGUCUAGGGAGCGGCGAAAGUCACACAAACCGG [A111C A145C C169U U176C]	0.0254
GUGCCUUGCGCCGGGAAACCACGCAAGGGAUGGUGUCAAAUUCGGCGAAACCUAAGCGCCCGCCCGGGCGUAUGGCAACGCCGAGCCAAGCUUCGGCGCCUGCGCCGAUGCAGGUGUAGAGACUAGACGGCACCCACCUAAGGCCAACGCUAUGGUGAAGGCAUAGUCAAGGGAGUGGCGAAAGUCACACAAACCGG [A111C A145C C169A]	0.0285
GUGCCUUGCGCCGGGAAACCACGCAAGGGAUGGUGUCAAAUUCGGCGAAACCUAAGCGCCCGCCCGGGCGUAUGGCAACGCCGAGCCAAGCUUCGGCGCCUGCGCCGAUGCAGGUGUAGAGACUAGACGGCACCCACCUAAGGCCAACGCUAUGGUGAAGGCAUAGUCUAGGGAGUGGCGAAAGUCACACAAACCGG [A111C A145C C169U]	0.118
GUGCCUUGCGCCGGGAAACCACGCAAGGGAUGGUGUCAAAUUCGGCGAAACCUAAGCGCCCGCCCGGGCGUAUGGCAACGCCGAGCCAAGCUUCGGCGCCUGCGCCGAUGCAGGUGUAGAGACUAGACGGCACCCACCUAAGGCCAACGCUAUGGUGAAGGCAUAGUCGAGGGAGUGGCGAAAGUCACACAAACCGG [A111C A145C C169G]	0.0652
GUGCCUUGCGCCGGGAAACCACGCAAGGGAUGGUGUCAAAUUCGGCGAAACCUAAGCGCCCGCCCGGGCGUAUGGCAACGCCGAGCCAAGCUUCGGCGCCUGCGCCGAUGCAGGUGUAGAGACUAGACGGCACCCACCUAAGGCCAACGUUAUGGUGAAGGCAUAGUCGAGGGAGAGGCGAAAGUCACACAAACCGG [A111C A145C C150U C169G U176A]	0.0249
GUGCCUUGCGCCGGGAAACCACGCAAGGGAUGGUGUCAAAUUCGGCGAAACCUAAGCGCCCGCCCGGGCGUAUGGCAACGCCGAGCCAAGCUUCGGCGCCUGCGCCGAUGCAGGUGUAGAGACUAGACGGCACCCACCUAAGGCCAACGUUAUGGUGAAGGCAUAGUCGAGGGAGGGGCGAAAGUCACACAAACCGG [A111C A145C C150U C169G U176G]	0.00689
GUGCCUUGCGCCGGGAAACCACGCAAGGGAUGGUGUCAAAUUCGGCGAAACCUAAGCGCCCGCCCGGGCGUAUGGCAACGCCGAGCCAAGCUUCGGCGCCUGCGCCGAUGCAGGUGUAGAGACUAGACGGCACCCACCUAAGGCCAACGUUAUGGUGAAGGCAUAGUCGAGGGAGCGGCGAAAGUCACACAAACCGG [A111C A145C C150U C169G U176C]	0.0197
GUGCCUUGCGCCGGGAAACCACGCAAGGGAUGGUGUCAAAUUCGGCGAAACCUAAGCGCCCGCCCGGGCGUAUGGCAACGCCGAGCCAAGCUUCGGCGCCUGCGCCGAUGCAGGUGUAGAGACUAGACGGCACCCACCUAAGGCCAACGUUAUGGUGAAGGCAUAGUCUAGGGAGUGGCGAAAGUCACACAAACCGG [A111C A145C C150U C169U]	0.032
GUGCCUUGCGCCGGGAAACCACGCAAGGGAUGGUGUCAAAUUCGGCGAAACCUAAGCGCCCGCCCGGGCGUAUGGCAACGCCGAGCCAAGCUUCGGCGCCUGCGCCGAUGCAGGUGUAGAGACUAGACGGCACCCACCUAAGGCCAACGUUAUGGUGAAGGCAUAGUCAAGGGAGUGGCGAAAGUCACACAAACCGG [A111C A145C C150U C169A]	0.0114
GUGCCUUGCGCCGGGAAACCACGCAAGGGAUGGUGUCAAAUUCGGCGAAACCUAAGCGCCCGCCCGGGCGUAUGGCAACGCCGAGCCAAGCUUCGGCGCCUGCGCCGAUGCAGGUGUAGAGACUAGACGGCACCCACCUAAGGCCAACGUUAUGGUGAAGGCAUAGUCGAGGGAGUGGCGAAAGUCACACAAACCGG [A111C A145C C150U C169G]	0.0204
GUGCCUUGCGCCGGGAAACCACGCAAGGGAUGGUGUCAAAUUCGGCGAAACCUAAGCGCCCGCCCGGGCGUAUGGCAACGCCGAGCCAAGCUUCGGCGCCUGCGCCGAUGCAGGUGUAGAGACUAGACGGCACCCACCUAAGGCCAACGUUAUGGUGAAGGCAUAGUCCAGGGAGUGGCGAAAGUCACACAAACCGG [A111C A145C C150U]	0.554
GUGCCUUGCGCCGGGAAACCACGCAAGGGAUGGUGUCAAAUUCGGCGAAACCUAAGCGCCCGCCCGGGCGUAUGGCAACGCCGAGCCAAGCUUCGGCGCCUGCGCCGAUGCAGGUGUAGAGACUAGACGGCACCCACCUAAGGCCAACGCUAUGGUGAAGGCAUAGUCAAGGGAGAGGCGAAAGUCACACAAACCGG [A111C A145C C169A U176A]	0.0151
GUGCCUUGCGCCGGGAAACCACGCAAGGGAUGGUGUCAAAUUCGGCGAAACCUAAGCGCCCGCCCGGGCGUAUGGCAACGCCGAGCCAAGCUUCGGCGCCUGCGCCGAUGCAGGUGUAGAGACUAGACGGCACCCACCUAAGGCCAACGCUAUGGUGAAGGCAUAGUCAAGGGAGGGGCGAAAGUCACACAAACCGG [A111C A145C C169A U176G]	0.007
GUGCCUUGCGCCGGGAAACCACGCAAGGGAUGGUGUCAAAUUCGGCGAAACCUAAGCGCCCGCCCGGGCGUAUGGCAACGCCGAGCCAAGCUUCGGCGCCUGCGCCGAUGCAGGUGUAGAGACUAGACGGCACCCACCUAAGGCCAACGCUAUGGUGAAGGCAUAGUCAAGGGAGCGGCGAAAGUCACACAAACCGG [A111C A145C C169A U176C]	0.0113
GUGCCUUGCGCCGGGAAACCACGCAAGGGAUGGUGUCAAAUUCGGCGAAACCUAAGCGCCCGCCCGGGCGUAUGGCAACGCCGAGCCAAGCUUCGGCGCCUGCGCCGAUGCAGGUGUAGAGACUAGACGGCACCCACCUAAGGCCAACGCUAUGGUGAAGGCAUAGUCGAGGGAGGGGCGAAAGUCACACAAACCGG [A111C A145C C169G U176G]	0.00691
GUGCCUUGCGCCGGGAAACCACGCAAGGGAUGGUGUCAAAUUCGGCGAAACCUAAGCGCCCGCCCGGGCGUAUGGCAACGCCGAGCCAAGCUUCGGCGCCUGCGCCGAUGCAGGUGUAGAGACUAGACGGCACCCACCUAAGGCCAACGCUAUGGUGAAGGCAUAGUCGAGGGAGCGGCGAAAGUCACACAAACCGG [A111C A145C C169G U176C]	0.0318
GUGCCUUGCGCCGGGAAACCACGCAAGGGAUGGUGUCAAAUUCGGCGAAACCUAAGCGCCCGCCCGGGCGUAUGGCAACGCCGAGCCAAGCUUCGGCGCCUGCGCCGAUGCAGGUGUAGAGACUAGACGGCACCCACCUAAGGCCAACGCUAUGGUGAAGGCAUAGUCGAGGGAGAGGCGAAAGUCACACAAACCGG [A111C A145C C169G U176A]	0.0324
GUGCCUUGCGCCGGGAAACCACGCAAGGGAUGGUGUCAAAUUCGGCGAAACCUAAGCGCCCGCCCGGGCGUAUGGCAACGCCGAGCCAAGCUUCGGCGCCUGCGCCGAUGCAGGUGUAGAGACUAGACGGCACCCACCUAAGGCCAACGUUAUGGUGAAGGCAUAGUCUAGGGAGGGGCGAAAGUCACACAAACCGG [A111C A145C C150U C169U U176G]	0.00818
GUGCCUUGCGCCGGGAAACCACGCAAGGGAUGGUGUCAAAUUCGGCGAAACCUAAGCGCCCGCCCGGGCGUAUGGCAACGCCGAGCCAAGCUUCGGCGCCUGCGCCGAUGCAGGUGUAGAGACUAGACGGCACCCACCUAAGGCCAACGUUAUGGUGAAGGCAUAGUCUAGGGAGCGGCGAAAGUCACACAAACCGG [A111C A145C C150U C169U U176C]	0.0139
GUGCCUUGCGCCGGGAAACCACGCAAGGGAUGGUGUCAAAUUCGGCGAAACCUAAGCGCCCGCCCGGGCGUAUGGCAACGCCGAGCCAAGCUUCGGCGCCUGCGCCGAUGCAGGUGUAGAGACUAGACGGCACCCACCUAAGGCCAACGUUAUGGUGAAGGCAUAGUCUAGGGAGAGGCGAAAGUCACACAAACCGG [A111C A145C C150U C169U U176A]	0.0174
GUGCCUUGCGCCGGGAAACCACGCAAGGGAUGGUGUCAAAUUCGGCGAAACCUAAGCGCCCGCCCGGGCGUAUGGCAACGCCGAGCCAAGCUUCGGCGCCUGCGCCGAUGCAGGUGUAGAGACUAGACGGCACCCACCUAAGGCCAACGCUAUGGUGAAGGCAUAGUCCAGGGAGAGGCGAAAGUCACACAAACCGG [A111C A145C U176A]	0.402
GUGCCUUGCGCCGGGAAACCACGCAAGGGAUGGUGUCAAAUUCGGCGAAACCUAAGCGCCCGCCCGGGCGUAUGGCAACGCCGAGCCAAGCUUCGGCGCCUGCGCCGAUGCAGGUGUAGAGACUAGACGGCACCCACCUAAGGCCAACGGUAUGGUGAAGGCAUAGUCCAGGGAGGGGCGAAAGUCACACAAACCGG [A111C A145C C150G U176G]	0.0182
